The values that follow come from publication PMC12753876 (2025).

B1: CRY1^(PHR WT) in pGADT7 (AD) [Arabidopsis thaliana] / HsFA3^WT in pGBKT7 (BD) [Arabidopsis thaliana] (parent complex)
chain 1: MSGSVSGCGSGGCSIVWFRRDLRVEDNPALAAAVRAGPVIALFVWAPEEEGHYHPGRVSRWWLKNSLAQLDSSLRSLGTCLITKRSTDSVASLLDVVKSTGASQIFFNHLYDPLSLVRDHRAKDVLTAQGIAVRSFNADLLYEPWEVTDELGRPFSMFAAFWERCLSMPYDPESPLLPPKKIISGDVSKCVADPLVFEDDSEKGSNALLARAWSPGWSNGDKALTTFINGPLLEYSKNRRKADSATTSFLSPHLHFGEVSVRKVFHLVRIKQVAWANEGNEAGEESVNLFLKSIGLREYSRYISFNHPYSHERPLLGHLKFFPWAVDENYFKAWRQGRTGYPLVDAGMRELWATGWLHDRIRVVVSSFFVKVLQLPWRWGMKYFWDTLLDADLESDALGWQYITGTLPDSREFDRIDNPQFEGYKFDPNGEYVRRWLPELSRLPTDWIHHPWNAPESVLQAAGIELGSNYPLPIVGLDEAKARLHEALSQMWQLEAASRAAIENGSEE
chain 2: not shown

Variants of B1 are the subject of the first experiment. Kind of experiment: yeast two-hybrid (beta-galactosidase, Miller units); n=3; parent: 280; read off a plot.
For the variant chain 1 K332E, the response is about 210 Miller Units.

Consider chain 1 K332E, chain 1 R335E, for which the response is about 280 Miller Units.

chain 1 R335E: the response is about 210 Miller Units.

In another experiment the parent is B1. The experiment is described as above. This is another data set of the same source.
Take chain 1 K332A, chain 1 R335A: the response is about 300 Miller Units.

Variants of B1 are the subject of a further experiment. The description is as above. The source holds these as a separate data set.
On to chain 1 R211A, chain 1 R435A, for which the response was about 150 Miller Units.
